Consider 9 molecules from US20200239555A1 (STATEN BIOTECHNOLOGY B V, published 2020).

Changes are numbered by the printed parent chain.

The labels stand for the following.
B1: mAb2 (antibody, IgG1, V domains shown)
VH: QLVESGGGLVQPGGSLRLSCAASGFTFGTYSMRWVRQVPGKGLEWVSSIHTEGGGTAYRDSVKGRFTISRDNAKNTLYLQMNSLRAEDTAIYYCVIAGYSDWGQGTLVTVSS
VL: DIVMTQSPLSLPVTPGESASISCKTSQGLVHSDGKTYFYWFLQKPGQSPQQLIYQVSNRASGVPDRFSGSGSGTDFTLKISRVKAEDAGVYYCAHGTYYPHTFGQGTRLEIK
notes: Produced as full length IgG1 (kappa) in ExpiCHO-S cells; also called humanized anti-ApoC3 antibody mAb2
B2: mAb12 (antibody, IgG1, V domains shown)
VH: B1 VH with G28S, E52D, G53A, A86P
VL: B1 VL with P12S, S18P, S68T, A88V
notes: Produced as full length IgG1 (kappa) in ExpiCHO-S cells; also called humanized anti-ApoC3 antibody mAb12
B3: mAb6 (antibody, IgG1, V domains shown)
VH: B1 VH with V38A, I91V
VL: B1 VL
notes: Produced as full length IgG1 (kappa) in ExpiCHO-S cells; also called humanized anti-ApoC3 antibody mAb6
B4: mAb8 (antibody, IgG1, V domains shown)
VH: B1 VH with G28S, V38A, E52D, G53A, S83N, I91V
VL: B1 VL with P12S, T14V, S18P, K84E, A88V
notes: Produced as full length IgG1 (kappa) in ExpiCHO-S cells; also called humanized anti-ApoC3 antibody mAb8
B5: mAb7 (antibody, V domains shown)
VH: B1 VH with G28S, V38A, E52G, S83N
VL: B1 VL
notes: Produced as full length IgG1 (kappa) in ExpiCHO-S cells; also called humanized anti-ApoC3 antibody mAb7
B6: mAb10 (antibody, IgG1, V domains shown)
VH: B1 VH with G28S, S83N, I91V
VL: B1 VL with P12S, T14V, S18P, K84E, A88V
notes: Produced as full length IgG1 (kappa) in ExpiCHO-S cells; also called humanized anti-ApoC3 antibody mAb10
B7: mAb9 (antibody, IgG1, V domains shown)
VH: B1 VH with G28S, V38A, E52D, G53A, S83N, I91V
VL: B1 VL with P12S, S18P, K84E, A88V
notes: Produced as full length IgG1 (kappa) in ExpiCHO-S cells; also called humanized anti-ApoC3 antibody mAb9
B8: mAb3 (antibody, IgG1, V domains shown)
VH: B1 VH with V38A
VL: B1 VL with S68T
notes: Produced as full length IgG1 (kappa) in ExpiCHO-S cells; also called humanized anti-ApoC3 antibody mAb3
B9: mAb11 (antibody, IgG1, V domains shown)
VH: B1 VH with G28S, S83N, I91V
VL: B1 VL with P12S, S18P, K84E, A88V
notes: Produced as full length IgG1 (kappa) in ExpiCHO-S cells; also called humanized anti-ApoC3 antibody mAb11

The target of the first assay is T1, biotinylated native human ApoC3 (human, UniProt P02656 21-99, biotinylated (site not stated)).
T1 construct: also called biotinylated human ApoC3
T1 sequence (P02656 21-99): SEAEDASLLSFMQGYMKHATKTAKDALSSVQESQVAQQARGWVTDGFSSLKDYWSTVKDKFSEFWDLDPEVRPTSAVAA
Description: SPR, IgG1 over biotinylated ApoC3 on SA chip. As for the experimental part:
(§1) Biotinylated native human ApoC3 was captured on a streptavidin coated SPR chip (GE Healthcare, cat. nr. BR100032) at pH 7.4, in accordance with the method provided by Biacore, by injection of 20 μl 10 μg/ml biotinylated native human ApoC3 reaching the surface density of approximately 500 RU. 60 μL of test antibody in 1-50 nM range diluted in HBS-EP buffer (GE, cat # BR-1008-26; 0.010 M HEPES, 0.150M NaCl, 3 mM EDTA, 0.05% (v/v) surfactant P20, pH 7.4) was injected and passed through the flow cells at a flow rate of 30 μl/min, followed by an off-rate wash at pH7.4 for 5 min. After the dissociation, the flow cell surfaces were regenerated by injecting 10 μl of 10 mM NaOH/1 M NaCl and 10 μl of 10 mM glycine at pH1.5. The assay was repeated at pH5.5 using the same general protocol, where the running and sample dilution buffer was replaced by a HBS-EP buffer supplemented with citrate buffer to 10 mM final concentration and pH adjusted to 5.5.
(§2) The resulting sensorgrams were analyzed using the BIAevaluation 4.1 software using Langmuir 1:1 binding model to derive binding kinetics. Data was zero adjusted and the reference cell sensorgrams were subtracted. Sensorgrams were double referenced to no-analyte blank assay. Fitted parameters were considered not applicable if off-rate values were below the equipment's detection limit of kd: 1×10⁻⁶ 1/s.
Background: In SPR one partner is held on a chip, and binding of the other changes the refractive index at the surface.
In the case of B1, the “KD pH5.5/KD pH7.4” value came to 5.13.

As to B2, the “KD pH5.5/KD pH7.4” value came out at 2.12.

On to B3, for which the “KD pH5.5/KD pH7.4” value amounted to 5.79.

B4: the “KD pH5.5/KD pH7.4” value worked out at 7.34.

For the molecule B5, the “KD pH5.5/KD pH7.4” value was determined as 52.7.

As to B6, the “KD pH5.5/KD pH7.4” value is 2.82.

B7: the “KD pH5.5/KD pH7.4” value amounted to 5.09.

For the molecule B8, the “KD pH5.5/KD pH7.4” value came to 3.19.

For the molecule B9, the “KD pH5.5/KD pH7.4” value was found to be 1.91.

Another assay deals with T2, native human ApoC3 (human, UniProt P02656 21-99).
T2 construct: also called nhuApoC3; native huApoC3
T2 sequence (P02656 21-99): as above
Description: SPR, ApoC3 over captured IgG1. As for the experimental part: (§3) An inverted SPR assay was designed in which a test antibody was captured on an SPR chip, human ApoC3 protein was injected, and binding of ApoC3 to the antibody was measured. […] The immobilization was performed in accordance with the method provided by Biacore/GE using the NHS/EDC kit (Biacore AB, Cat.nr. BR-1000-50): after activation of the chip, a solution of 30 μg/ml of anti-human Fcγ antibody in 10 mM acetate buffer with pH of 5.0 was prepared and injected until the surface density reached approximately 10000 RU. The analytical cycle comprised the following steps:
(§4) The resulting sensorgrams were analyzed using the BIAevaluation 4.1 software using Langmuir 1:1 binding model to derive binding kinetics. Data was zero adjusted, the reference cell sensorgrams were subtracted and the no analyte blank assay was used for double referencing the sensorgrams corresponding to the analyte injections. The dissociation and association phase sensorgrams were fitted separately for the 4 different concentration curves. Sensorgrams were excluded from the fitting if maximum RU values reached were below the detection limit of the equipment (<5 RU), Biacore 3000 (Biacore AB).
Take B1: the “KD (nM) pH5.5/pH7.4” value worked out at 2.82.

On to B2, for which the “KD (nM) pH5.5/pH7.4” value turned out to be 1.07.

For the molecule B3, the “KD (nM) pH5.5/pH7.4” value turned out to be 5.22.

For the molecule B4, the “KD (nM) pH5.5/pH7.4” value came out at 1.

As for B5, the “KD (nM) pH5.5/pH7.4” value is 2.36.

As to B6, the “KD (nM) pH5.5/pH7.4” value came to 1.77.

Regarding B7, the “KD (nM) pH5.5/pH7.4” value was found to be 2.33.

On to B8, for which the “KD (nM) pH5.5/pH7.4” value was determined as 1.86.

On to B9, for which the “KD (nM) pH5.5/pH7.4” value came out at 3.9.

In the next assay the target is T1, biotinylated native human ApoC3. Description: SPR, IgG1 over biotinylated ApoC3 on SA chip, pH 7.4. As for the experimental part: as §1, §2
The term Kd denotes the free concentration of one partner at which half of the binding sites on the other are occupied at equilibrium, for simple one-to-one binding. Low values mean a tighter complex, high ones a looser complex. Broadly, the koff is a measure of how fast the partners let go of each other. Low values mean slow dissociation, high ones fast dissociation. By kon is commonly meant a measure of how fast the partners come together. Lower therefore signals slower complex formation. B1 yielded a Ka of 1.81e+10 M⁻¹, a Kd of 0.06 nM, a koff of 1.35e-05 s⁻¹ and a kon of 245000 M⁻¹ s⁻¹.

The molecule B2 gave a Ka of 1.53e+10 M⁻¹, a Kd of 0.07 nM, a koff of 1.49e-05 s⁻¹ and an on-rate constant (kon) of 228000 M⁻¹ s⁻¹.

Regarding B3, the Ka stood at 1.67e+10 M⁻¹, the Kd was 0.06 nM, the koff was 1.33e-05 s⁻¹ and the kon worked out at 222000 M⁻¹ s⁻¹.

B4 showed a Ka of 9.83e+09 M⁻¹, a dissociation constant (Kd) of 0.1 nM, a koff of 2.41e-05 s⁻¹ and a kon of 237000 M⁻¹ s⁻¹.

In turn, B5 gave a Ka of 1.08e+10 M⁻¹, a Kd of 0.09 nM, a koff of 3.37e-05 s⁻¹ and a kon of 364000 M⁻¹ s⁻¹.

B6 returned a Ka of 1.05e+10 M⁻¹, a Kd of 0.1 nM, a koff of 2.12e-05 s⁻¹ and a kon of 221000 M⁻¹ s⁻¹.

B7 gave a Ka of 6.71e+09 M⁻¹, a Kd of 0.15 nM, a koff of 3.32e-05 s⁻¹ and a kon of 223000 M⁻¹ s⁻¹.

In turn, B8 had a Ka of 9.11e+09 M⁻¹, a koff of 2.33e-05 s⁻¹ and an on-rate (kon) of 212000 M⁻¹ s⁻¹.

The molecule B9 registered a Ka of 5.77e+09 M⁻¹, a Kd of 0.17 nM, a dissociation rate constant (koff) of 3.8e-05 s⁻¹ and a kon of 219000 M⁻¹ s⁻¹.

Another assay addresses T2, native human ApoC3. Description: SPR, ApoC3 over captured IgG1, pH 7.4. As for the experimental part:
as §3, §4
The molecule B1 returned a Ka of 9.69e+06 M⁻¹, a koff of 0.0046 s⁻¹ and a kon of 44500 M⁻¹ s⁻¹.

Take B2: the Ka worked out at 3.12e+06 M⁻¹, the koff was 0.00655 s⁻¹ and the kon worked out at 20400 M⁻¹ s⁻¹.

B3 returned a Ka of 6.08e+06 M⁻¹, a koff of 0.00672 s⁻¹ and a kon of 40900 M⁻¹ s⁻¹.

The molecule B4 showed a Ka of 4.15e+06 M⁻¹, a koff of 0.00772 s⁻¹ and a kon of 32100 M⁻¹ s⁻¹.

Regarding B5, the Ka came to 4.05e+06 M⁻¹, the koff came to 0.012 s⁻¹ and the kon came out at 48500 M⁻¹ s⁻¹.

Molecule B6 had a Ka of 5.3e+06 M⁻¹, a koff of 0.00601 s⁻¹ and an on-rate constant (kon) of 31900 M⁻¹ s⁻¹.

Take B7: the Ka was found to be 4.31e+06 M⁻¹, the off-rate (koff) came out at 0.00669 s⁻¹ and the on-rate constant (kon) amounted to 28800 M⁻¹ s⁻¹.

The molecule B8 came in with a Ka of 5.75e+06 M⁻¹, a koff of 0.00582 s⁻¹ and a kon of 33400 M⁻¹ s⁻¹.

Molecule B9 had a Ka of 7.73e+06 M⁻¹, a koff of 0.00523 s⁻¹ and a kon of 40400 M⁻¹ s⁻¹.

A further assay has as its target T2, native human ApoC3. In words: SPR, ApoC3 over captured IgG1, pH 5.5. As for the experimental part:
as §3, §4
In turn, B1 displayed a Ka of 3.44e+06 M⁻¹, a koff of 0.0281 s⁻¹ and a kon of 96600 M⁻¹ s⁻¹.

The molecule B2 registered a Ka of 2.91e+06 M⁻¹, a koff of 0.0251 s⁻¹ and an on-rate (kon) of 73200 M⁻¹ s⁻¹.

B3 gave a Ka of 1.16e+06 M⁻¹, a dissociation rate constant (koff) of 0.0802 s⁻¹ and a kon of 93100 M⁻¹ s⁻¹.

Take B4: the Ka was 4.13e+06 M⁻¹, the koff was 0.0205 s⁻¹ and the kon stood at 84600 M⁻¹ s⁻¹.

B5 came in with a Ka of 1.71e+06 M⁻¹, a koff of 0.0646 s⁻¹ and a kon of 111000 M⁻¹ s⁻¹.

B6 gave a Ka of 2.99e+06 M⁻¹, a koff of 0.0274 s⁻¹ and a kon of 82100 M⁻¹ s⁻¹.

B7 returned a Ka of 1.85e+06 M⁻¹, a koff of 0.0467 s⁻¹ and a kon of 86300 M⁻¹ s⁻¹.

The molecule B8 yielded a Ka of 3.09e+06 M⁻¹, a koff of 0.033 s⁻¹ and a kon of 102000 M⁻¹ s⁻¹.

The molecule B9 registered a Ka of 1.99e+06 M⁻¹, a koff of 0.0405 s⁻¹ and an association rate constant (kon) of 80500 M⁻¹ s⁻¹.

Another assay has as its target T1, biotinylated native human ApoC3. In words: SPR, IgG1 over biotinylated ApoC3 on SA chip, pH 5.5. As for the experimental part:
as §1, §2
On to B1, for which the Ka is 3.54e+09 M⁻¹, binding was characterised by a dissociation constant (Kd) of 0.28 nM, the off-rate (koff) came to 0.000123 s⁻¹ and the kon is 435000 M⁻¹ s⁻¹.

B2 registered a Ka of 7.18e+09 M⁻¹, a dissociation constant (Kd) of 0.14 nM, a koff of 6.73e-05 s⁻¹ and a kon of 483000 M⁻¹ s⁻¹.

Take B3: the Ka worked out at 2.88e+09 M⁻¹, the Kd was 0.35 nM, the koff was found to be 0.000148 s⁻¹ and the kon turned out to be 425000 M⁻¹ s⁻¹.

Molecule B4 had a Ka of 1.34e+09 M⁻¹, a Kd of 0.75 nM, a koff of 0.000367 s⁻¹ and a kon of 490000 M⁻¹ s⁻¹.

Turning to B5, the Ka was 2.05e+08 M⁻¹, the dissociation rate constant (koff) was 0.00321 s⁻¹ and the kon worked out at 656000 M⁻¹ s⁻¹.

B6 returned a Ka of 3.7e+09 M⁻¹, an off-rate (koff) of 0.000113 s⁻¹ and a kon of 417000 M⁻¹ s⁻¹.

The molecule B7 displayed a Ka of 1.32e+09 M⁻¹, a Kd of 0.76 nM, a dissociation rate constant (koff) of 0.000369 s⁻¹ and a kon of 486000 M⁻¹ s⁻¹.

Molecule B8 displayed a Ka of 2.85e+09 M⁻¹, a Kd of 0.35 nM, a koff of 0.000127 s⁻¹ and a kon of 363000 M⁻¹ s⁻¹.

In the case of B9, the Ka turned out to be 3.02e+09 M⁻¹, the Kd worked out at 0.33 nM, the koff came to 0.000147 s⁻¹ and the on-rate (kon) was determined as 445000 M⁻¹ s⁻¹.
